According to paper PMC3266742 (Molecular Cell, 2010):

Molecular target: ubiquitin (mono-Ub), untagged, purified (UniProt P0CG47 1-76)
Experiment: NMR titration

Kd: 224 µM
B1: 6xHis-tagged Doa1 β-Prp (domain or fragment, S. cerevisiae)
chain: GYQLSATLKGHDQDVRDVVAVDDSKVASVSRDGTVRLWSKDDQWLGTVVYTGQGFLNSVCYDSEKELLLFGGKDTMINGVPLFATSGEDPLYTLIGHQGNVCSLSFQDGVVISGSWDKTAKVWKEGSLVYNLQAHNASVWDAKVVSFSENKFLTASADKTIKLWQNDKVIKTFSGIHNDVVRHLAVVDDGHFISCSNDGLIKLVDMHTGDVLRTYEGHESFVYCIKLLPNGDIVSCGEDRTVRIWSKENGSLKQVITLPAISIWSVDCMSNGDIIVGSSDNLVRIFSQEKSRWASEDEI
